Measured values as given in the nanobody polyreactivity screen of Harvey et al. (2022).

assay: yeast display, Sf9 membrane polyspecificity reagent, FACS + sequencing; frameworks hold sequencing errors
How it was run: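 Galactose-induced (36–48 hours) yeast carrying a synthetic nanobody display library were exposed to 10% biotinylated, detergent-solubilized Sf9 membrane reagent at 4 °C for 1 hour. FACS followed streptavidin microbead enrichment, using low and high (top ~1%) gates for expression (anti-HA) and reagent binding (streptavidin). Colony PCR, MiSeq 2 × 250 sequencing and CDR-length filtering followed. Labels for polyreactivity reflect the gate of origin.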

Sequence	polyreactivity (PSR sort gate)
QFQLVESGGGLVQAGGSLRLSCAASGIIDGNARGWYRQAPGKEREFVATISVNDGNTYYADSVKGRFTISRDNAKNTVYLQMNSLKPEDTAVSYCATPTVYVPIPDLGDYWGQGTQVTVSS	low polyreactivity
QFQLVESGGGLVQAGGSLRLSCAASGIIFDYNAMGWYRQAPGKERELVAAITRGGSTYYADSVNGRFTISRDNAKNTVYVQMTSLKPEDTAVYYCKAVLPVHWSWYDYWGQGTQVTVSS	low polyreactivity
QFQLVESGGGLVQAGGSLRLSCAASGIIFNRNVMRWYRQAPAKERELVAAITWGGGRTYYADSVKGRFTISRDNAKNTVYLQMNSLIPVDTAVYFCAARSRGSSRFDYWGQGTQVTVSS	high polyreactivity
QFQLVESGGGLVQAGGSLRLSCAASGIIFRYYGMGWYRQAPGKERELVARILWTGGSTYYADSVKGRFTISRDNAKNTVYFQMNSLKPEDTAVYYSAADIWQYSRIANYHPYEYWGQGTQVTVSS	low polyreactivity
QFQLVESGGGLVQAGGSLRLSCAASGITFVDNAMGWYRQAPGKERELVAAITNSGSTYADSVKGRFTISRDNAKNTVYVQMNSLKPEDTAVYYCAADYYILLTKSDRLFGSWGQGTQVTVSS	low polyreactivity
QFQLVESGGGLVQAGGSLRLSCAASGNTFINYAMGWYRQATRKEREVVAAISKRGGSTYYADSVKGRFTISRDNAKNTVYLQMNSLKPEDTAVYYCAARLKTYKEGDYCGQGTQVTVSS	high polyreactivity
QFQLVESGGGLVQAGGSLRLSCAASGRIFKTYTMGWYRQAPGKERELVAVITSGGGTYYADSVKGRFTISRDNAKNTVYLQMNSLKPEDTAVYYCAARGMESPYGYWGQGTQVTVSS	low polyreactivity
QFQLVESGGGLVQAGGSLRLSCAASGRIFSLNAMGWYRQAPGKESELVAAITSTGGTTYYADSVKGRFTISRDNAKNTVYLQMNSLKPEDTAVYYCAADYYSYAWHGWYYSDHYDYWGQGTQVTVSS	low polyreactivity
QFQLVESGGGLVQAGGSLRLSCAASGRIFTYYAMGWYRQAPGKEWELVAAISTSGGSTYYADSVKGRFTISRDNANNTVYLQMNSLKPEDTAVYYCAKVYPPRYYRDYNYWGQGTQVTVSS	high polyreactivity
QFQLVESGGGLVQAGGSLRLSCAASGRIFVINAMGWYRKATGIETELVAAISSSGGSTSYADSVKGRFTISRDNAKNTVYLQMNSLKPEDTAVYYCADKPRVRRDDGYYWGQGTLVTVSS	high polyreactivity
QFQLVESGGGLVQAGGSLRLSCAASGRIFYPYAMGWYRQATGKEREFVATIRARGGDSTSYADSVKGRFTISRDNAKNTVYLQMNSLKPEDTGVYYCAALFYTYRWRYYVYHLDYWGHGTQVTVSS	low polyreactivity
QFQLVESGGGLVQAGGSLRLSCAASGRIFYYNAMGWDRQAPGKERELVASISTGGGSTYYADSVKGRFTISRDNAKNTVYLQMNSLKTEDTAVYYCAARALTRSVPYGFYYWGQGTQVTVSS	high polyreactivity
QFQLVESGGGLVQAGGSLRLSCAASGRTFAWNAMGWYRQAPGKERELVAAISYNGGRTYYADSVKGRFTISRDNAKNTVYFQMNSLKPEDTAVYYCAAQRYGYWGQGTQVTVSS	high polyreactivity
QFQLVESGGGLVQAGGSLRLSCAASGRTFGFYAMGWYRQAPGKERELVASITWRGGRTYYADSVKGRFTISRDNAKNTVYLQMNSLKPEDTAVYYCAAVTFSYDGYDYWGQGTQVTVSS	low polyreactivity
QFQLVESGGGLVQAGGSLRLSCAASGRTFGVYAMGWYRQAPGKERELVAAIRWSGGGTYYADSVKGRFTISRDNAKNTVYLQMNSLKPEDTAVYYCAADSLLVLFDYWGQGTQVTVSA	low polyreactivity
QFQLVESGGGLVQAGGSLRLSCAASGRTFRGYAMGWYRQAPGKERELVPAITWRGGSTYYADSVKGRFTISRDNAKNTVYLQMKSLKPEDTAVYYCNTLVWSYLGGYYSRYDYWGQGTQVTVSS	high polyreactivity
QFQLVESGGGLVQAGGSLRLSCAASGRTFRGYAMGWYRQATGTERELVAAITWRGGSTYYADSVKGRFTISRDNEKNTVYLQMNSLKPEDTAVYYCNTLVWSYLGGYYSRYDYWGQGTQVTVSS	high polyreactivity
QFQLVESGGGLVQAGGSLRLSCAASGRTLYGYAMGWYRQAPGKERELVAVISGRGGSTYYADSVKGRFTISRDNAKNTVYLQMNSLKPEDTAAYFCAAVVHQGLSVRYGYWGQGTQVTVSS	high polyreactivity
QFQLVESGGGLVQAGGSLRLSCAASGSIFDYYDLGWSRKAPGKERELGAAINWSGGITYYADSVKGRFTISRDNAKNTVYLQMNSLKPEDTGVYYCAADWYQWVYSSSITSFDYWGQGTQVTVSS	low polyreactivity
QFQLVESGGGLVQAGGSLRLSCAASGSIFGGYAMGWYRQAPGKEREFVAAITRSGVSTYYADSVKGRFTISRDNEKNTVYLQMNSLKPEDTAVYYCAADQTAWRLRVYLRQYRYEYWGQGTQVTVSS	high polyreactivity
QFQLVESGGGLVQAGGSLRLSCAASGSIFGGYAMGWYRQAPGKERELVAAISYRGASTYYADSVKGRFTISRDNAKNTVYLLMNSLKPEDTAVYYCAVAARTRARFLYGYDYWGQGTQVTVSS	low polyreactivity
QFQLVESGGGLVQAGGSLRLSCAASGSIFKRYAMGWYRQAAGKERELVAAISSRGGNTYYADSVKGRFTISRDNAKNTVYLQMNSLKPEDTAVYYCAAYLWKSKRKLDYWGQGTQVTVSS	high polyreactivity

Sequence	polyreactivity (PSR sort gate)
QFQLVESGGGLVQAGGSLRLSCAASGSIFKYYVMGWYRQAPGNERELVATITSDGGTNYADSVKGRFTISRDNAKNTVYLQMNSLKPEDTAVYYCNAASRRGSRKQAKYDYWGQGTQVTVSS	low polyreactivity
QFQLVESGGGLVQAGGSLRLSCAASGSIFQSYAMVWYRQAPGKERELVAAITRSGGRTYYADSVKGRFTISRDNAKNTVYLQMNSLKPEDTAVYFCAAFGWGYGYWGQGTQVTVSS	high polyreactivity
QFQLVESGGGLVQAGGSLRLSCAASGSTFGVYAMGWYRQAPGKERELVATINSGGSTNYADSVKGRFTISRDNAKNTVYLQMNSLKPEDTAVYYCAAGPFWQDFYVYEYDYWGQGTQVTVSS	low polyreactivity
QFQLVESGGGLVQAGGSLRLSCAASGSTFNYNAMGWYRQAPGIERELVAAISSSAGSTYYADSVKGRFTISRDNAKNTVYLQMNILKPEDTAVYYCANGGSSRVRTEGDYWGQGTQVTVSS	low polyreactivity
QFQLVESGGGLVQAGGSLRLSCAASGSTFVYNAMGWDRHAPGKERELVAAISRGGGITYYADSVKGRFTISRDKAKNSVYFQMHSLKPEDTAVYYCQYLSRGLNTYRSSQGDDDYWGHGTQVTVSS	high polyreactivity
QFQLVESGGGLVQAGGSLRLSCAASRRTFTYYDMGWYRQAPGNEGELVSAISRRGGSTYYADSVKGRFTISRDNAKNTVYFQMNSLKPEDTAVYYCAAEVRLFSYTYSFFRYEYWGQGTHVTVSS	high polyreactivity
QFQLVESGGGLVQAGGSLRLSCAAYGSIFMYYAMGWYIQAPGKERELVAAIRRGGNTNYADSVKGRFTISRDNAKNTVYLQMNSLKPEDTAVYYCAAAQYSRYSRVPNYYAGTYYYWGQGTQVTVSS	low polyreactivity
QFQLVESGGGLVQAGGSLRLSCESSGFTFYKYAIGSYRKAPGKERELVAAISRRGTSTYYADSVKGRFTISRDNAKNTVYLQMNSLNPEDTAVYYCNRDVSLSAFDYWGQGTQVTVSS	high polyreactivity
QFQLVESGGGLVQAGGSLRLSCPASGRIFYYYSMGWYRQAPGKEREFVAAITGRGGSTYYADSVKGRFTISRDNAKYTVYLQMNSLKPEDTADYYCNAGQYFEYYGWYSRYGYWGQGTQVTVSS	low polyreactivity
QFQLVESGGGLVQAGGTLRLSCAASGSTFYHYPLGWYRQAPGTVRQLVARITSSSGSTYYADSVKGRFTISRDNAKNTVYLQMYSLKPEDTAVYYCAASYYIVPYLTYGYWGQGTQVTVSS	low polyreactivity
QFQLVESGGGLVQAGGTLRLSCAASRRIFIHYAMGLSRQAPGKERELVSAISASGGTTNYADSVKGRFTISRDNAKNTVYLQLKSQKQEDTAVYYCAAEGYRSWRGLLSRYYYWGQGTQVTVSS	high polyreactivity
QFQLVESGGGLVQAGRSLRLSCAASGSIFWSNAMGWYRQAPGKERELVAAITTSDGSKYYADSVKGRFRISRDNANNTVYLQMNILKPEDTAVYYCAADTYFVCYGYYYWGQGTQVTVSS	low polyreactivity
QFQLVESGGGLVQAGVVSLKLCCLRKHFIYYAMAWSRQAPWKDTELVAGINSGGSTKYADSVKRRFTISRDNAKNSVYLQMNSLKPEDTAVYYCNADSYSPVIQEYDYWGQGTQVTVSS	low polyreactivity
QFQLVESGGGLVQSGGSLRLSCAASGFIFRSYAMGWYRQAPVKERELVAVISRRGVNTHYADSVKGRFTISRDNAKNTVYLQMNSLKPEDTAVYYCAKGLTAVGDYWGQGTQVTVSS	high polyreactivity
QFQLVESGGRLDQAGGSLRLSCAASSSIFDDYAMGWYRQAPGKERELVAAISWSGGSTYYADSVQGRFTISRDNPNHTVYLQMNSLKREDTAVYYCAAYAYDYLYGEYYWGQGTQVTVSS	low polyreactivity
QFQLVESGGRLVQPGGSLRLSCAASGGIFYGYAMGWYRKAPGKERELVAAISSTGGRTYYADSVKGRFTISRDNAKNTVYLQMNSLKPEDTAVSYCAAEDFTRQFEYWGQGTQVTVSS	low polyreactivity
QFQLVESGRGLVQAGGSLRLICAASGSIFIPYAMGWYRQAPGKERELVAAISSSGSTYYADSVKGRFTISRDNAKNTVYLQMNSLKPEDTAVYYCAAERHYSYSSYDYWGQGTQVTVSS	low polyreactivity
QFQLVESGRGLVQAGGSLRLSCAASGRIFSYNTLGWYRQAPGKERELVAAITNNGGSTYYADSVKGRFTISRDNAKNTVYLQMNSLKPEDTAVYYCNRDRYPFYYAYNYWGQGTQVTVSS	low polyreactivity
QFQLVESGRGLVQAGGSLRLSCAASGRTFTYYAMGWYRQAPGNERELVAAIRYTGGSTHYADSVKGRFTISRENAKNTVYFQMNSLKPEDTAVYYCADRRAYTRGGTVYFGYYYWGQGTQVTVSS	high polyreactivity
QFQLVESGRGLVQAGGSLRLSCAASVRIFRGYAKGWYRQAPGKEREFVAANTKNGGSTYYADSVKGRFTISRDYAKNTVYLQMNSLKPEDTAVYYCAVRAWEPYTGKSDYWGQGTQVTVSS	low polyreactivity
QFQLVESGVGLVQAGGSLRLSCAASVRINYAYAMGWYRQTPGKERELVAAISTRGGNTYYADSVKGRFTISRDNAMNTVYLQINSLIPEETEVYYCNALSVSRRFGYDSWGQGTQVTVSS	high polyreactivity
